Experimental findings from IntAct's records for PubMed 20676127 are described below.

First the molecules themselves.
B1: Inhibitor of growth protein 2 (Homo sapiens), Q9H160 (parent)
chain: MLGQQQQQLYSSAALLTGERSRLLTCYVQDYLECVESLPHDMQRNVSVLRELDNKYQETLKEIDDVYEKYKKEDDLNQKKRLQQLLQRALINSQELGDEKIQIVTQMLELVENRARQMELHSQCFQDPAESERASDKAKMDSSQPERSSRRPRRQRTSESRDLCHMANGIEDCDDQPPKEKKSKSAKKKKRSKAKQEREASPVEFAIDPNEPTYCLCNQVSYGEMIGCDNEQCPIEWFHFSCVSLTYKPKGKWYCPKCRGDNEKTMDKSTEKTKKDRRSR
partner: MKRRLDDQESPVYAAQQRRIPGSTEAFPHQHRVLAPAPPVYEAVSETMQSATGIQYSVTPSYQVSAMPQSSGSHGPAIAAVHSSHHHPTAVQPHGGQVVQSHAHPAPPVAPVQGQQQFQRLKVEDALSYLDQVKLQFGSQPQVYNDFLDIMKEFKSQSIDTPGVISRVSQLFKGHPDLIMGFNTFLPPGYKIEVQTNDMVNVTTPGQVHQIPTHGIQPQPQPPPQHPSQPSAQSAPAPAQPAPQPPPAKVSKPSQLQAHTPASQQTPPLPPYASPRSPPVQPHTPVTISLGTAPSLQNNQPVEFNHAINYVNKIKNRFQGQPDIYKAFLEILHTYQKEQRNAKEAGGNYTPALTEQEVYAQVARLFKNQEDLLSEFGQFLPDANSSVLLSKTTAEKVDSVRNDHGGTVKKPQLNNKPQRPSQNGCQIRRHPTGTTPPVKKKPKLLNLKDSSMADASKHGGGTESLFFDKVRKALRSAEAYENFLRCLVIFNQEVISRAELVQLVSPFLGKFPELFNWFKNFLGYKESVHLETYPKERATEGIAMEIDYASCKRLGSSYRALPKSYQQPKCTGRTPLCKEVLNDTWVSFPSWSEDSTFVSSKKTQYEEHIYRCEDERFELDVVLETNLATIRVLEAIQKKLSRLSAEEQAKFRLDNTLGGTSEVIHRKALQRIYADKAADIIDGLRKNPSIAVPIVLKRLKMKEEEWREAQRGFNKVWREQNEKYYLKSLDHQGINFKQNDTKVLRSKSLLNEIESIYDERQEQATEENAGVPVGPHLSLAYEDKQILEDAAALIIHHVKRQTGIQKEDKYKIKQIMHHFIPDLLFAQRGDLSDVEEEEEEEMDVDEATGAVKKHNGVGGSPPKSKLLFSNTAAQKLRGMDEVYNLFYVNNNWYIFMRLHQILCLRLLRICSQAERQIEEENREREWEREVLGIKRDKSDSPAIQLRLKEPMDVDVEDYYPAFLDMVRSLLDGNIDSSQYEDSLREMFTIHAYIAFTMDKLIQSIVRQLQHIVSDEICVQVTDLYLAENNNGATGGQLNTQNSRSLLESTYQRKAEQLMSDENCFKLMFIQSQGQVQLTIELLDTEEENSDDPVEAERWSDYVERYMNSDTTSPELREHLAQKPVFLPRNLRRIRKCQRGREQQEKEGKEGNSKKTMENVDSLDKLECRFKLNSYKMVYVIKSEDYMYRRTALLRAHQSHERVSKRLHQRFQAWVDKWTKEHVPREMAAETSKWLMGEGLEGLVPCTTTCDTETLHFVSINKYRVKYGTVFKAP

The variants in this test derive from B1. To be noted: with sin3a_human SIN3A.
Regarding K195R, the “effect of a mutation on the interaction” value is “decreasing interaction”. Take E197A: the “effect of a mutation on the interaction” value is “decreasing interaction”.
